Results taken from patent US20200268847A1, “Methods of Treating Newly Diagnosed Multiple Myeloma with a Combination of An Antibody that Specifically Binds CD38, Lenalidomide and Dexamethasone” (Janssen Biotech, Inc., priority 2019, published 2020).

System: patients with newly diagnosed multiple myeloma ineligible for HDC and ASCT
Assay: MAIA: safety, adverse events graded by NCI-CTCAE version 4, treatment discontinuations
From the text: Safety will be measured by adverse events, laboratory test results, ECGs, vital sign measurements, physical examination findings, and assessment of ECOG performance status score.
Safety analyses included adverse event assessment graded in severity according to NCI-CTCAE version 4, electrocardiograms, clinical laboratory testing, physical examinations, and vital signs.
The safety population included patients who received any dose of trial treatment.

Daratumumab (DARZALEX®): antibody that specifically binds CD38, heavy chain of SEQ ID NO: 9 and light chain of SEQ ID NO: 10 [reference compound]
infusion-related reactions occurring during the first dose (% of patients with infusion reactions): 98.0%
infusion-related reactions (% of patients, any grade): 40.9%
patients who discontinued daratumumab treatment due to an infusion-related reaction (grade 4 hypertension): one
infusion-related reactions, grade 3 or 4 events (in vivo): 2.7%
infusion-related reactions, grade 5 events (in vivo): no grade 5 events were reported
